According to US20220298218A1 (ANTAG THERAPEUTICS, published 2022):
Where no end group is shown, it is not given here. [ ]: non-standard residue; d: D form. The star is where a group is joined. C16 diacid = O=C(O)CCCCCCCCCCCCCCC(=O)*; Nle = CCCC[C@H](N)C(=O)O; Aib = CC(C)(N)C(=O)O

T1: human GIP receptor (human, UniProt P48546 22-466)
T1 sequence (looked up): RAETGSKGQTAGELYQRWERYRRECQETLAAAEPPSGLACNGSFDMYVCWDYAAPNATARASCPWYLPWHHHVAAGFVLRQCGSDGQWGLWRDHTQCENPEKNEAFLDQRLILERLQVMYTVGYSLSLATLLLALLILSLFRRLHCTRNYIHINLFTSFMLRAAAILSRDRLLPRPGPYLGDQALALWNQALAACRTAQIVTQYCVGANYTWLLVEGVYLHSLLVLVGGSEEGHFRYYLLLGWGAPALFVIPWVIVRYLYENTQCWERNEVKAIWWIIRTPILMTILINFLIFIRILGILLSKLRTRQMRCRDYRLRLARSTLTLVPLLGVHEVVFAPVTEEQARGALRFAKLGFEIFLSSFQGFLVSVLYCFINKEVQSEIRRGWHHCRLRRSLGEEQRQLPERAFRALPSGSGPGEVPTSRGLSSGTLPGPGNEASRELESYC

B1: AT673 (peptide)
peptide: EGTFISEYSI[Aib]LEKIK(C16 diacid)QQEFVEWLLAQKPSSGAPPPS-OH
modifications: N-terminus assumed
SMILES: CC[C@H](C)[C@H](NC(=O)[C@H](CCCCN)NC(=O)[C@H](CCC(=O)O)NC(=O)[C@H](CC(C)C)NC(=O)C(C)(C)NC(=O)[C@@H](NC(=O)[C@H](CO)NC(=O)[C@H](Cc1ccc(O)cc1)NC(=O)[C@H](CCC(=O)O)NC(=O)[C@H](CO)NC(=O)[C@@H](NC(=O)[C@H](Cc1ccccc1)NC(=O)[C@@H](NC(=O)CNC(=O)[C@@H](N)CCC(=O)O)[C@@H](C)O)[C@@H](C)CC)[C@@H](C)CC)C(=O)N[C@@H](CCCCNC(=O)CCCCCCCCCCCCCCC(=O)O)C(=O)N[C@@H](CCC(N)=O)C(=O)N[C@@H](CCC(N)=O)C(=O)N[C@@H](CCC(=O)O)C(=O)N[C@@H](Cc1ccccc1)C(=O)N[C@H](C(=O)N[C@@H](CCC(=O)O)C(=O)N[C@@H](Cc1c[nH]c2ccccc12)C(=O)N[C@@H](CC(C)C)C(=O)N[C@@H](CC(C)C)C(=O)N[C@@H](C)C(=O)N[C@@H](CCC(N)=O)C(=O)N[C@@H](CCCCN)C(=O)N1CCC[C@H]1C(=O)N[C@@H](CO)C(=O)N[C@@H](CO)C(=O)NCC(=O)N[C@@H](C)C(=O)N1CCC[C@H]1C(=O)N1CCC[C@H]1C(=O)N1CCC[C@H]1C(=O)N[C@@H](CO)C(=O)O)C(C)C
B2: AT668 (peptide)
peptide: EGTFISDYSIALDKIK(C16 diacid)QQDFVEWLLAQKPSSGAPPPS-OH
modifications: N-terminus assumed
SMILES: CC[C@H](C)[C@H](NC(=O)[C@H](CO)NC(=O)[C@H](Cc1ccc(O)cc1)NC(=O)[C@H](CC(=O)O)NC(=O)[C@H](CO)NC(=O)[C@@H](NC(=O)[C@H](Cc1ccccc1)NC(=O)[C@@H](NC(=O)CNC(=O)[C@@H](N)CCC(=O)O)[C@@H](C)O)[C@@H](C)CC)C(=O)N[C@@H](C)C(=O)N[C@@H](CC(C)C)C(=O)N[C@@H](CC(=O)O)C(=O)N[C@@H](CCCCN)C(=O)N[C@H](C(=O)N[C@@H](CCCCNC(=O)CCCCCCCCCCCCCCC(=O)O)C(=O)N[C@@H](CCC(N)=O)C(=O)N[C@@H](CCC(N)=O)C(=O)N[C@@H](CC(=O)O)C(=O)N[C@@H](Cc1ccccc1)C(=O)N[C@H](C(=O)N[C@@H](CCC(=O)O)C(=O)N[C@@H](Cc1c[nH]c2ccccc12)C(=O)N[C@@H](CC(C)C)C(=O)N[C@@H](CC(C)C)C(=O)N[C@@H](C)C(=O)N[C@@H](CCC(N)=O)C(=O)N[C@@H](CCCCN)C(=O)N1CCC[C@H]1C(=O)N[C@@H](CO)C(=O)N[C@@H](CO)C(=O)NCC(=O)N[C@@H](C)C(=O)N1CCC[C@H]1C(=O)N1CCC[C@H]1C(=O)N1CCC[C@H]1C(=O)N[C@@H](CO)C(=O)O)C(C)C)[C@@H](C)CC
B3: AT670 (peptide)
peptide: EGTFISDYSIAKDKIK(C16 diacid)QQDFVEWLLAQKPSSGAPPPS-OH
modifications: N-terminus assumed
SMILES: CC[C@H](C)[C@H](NC(=O)[C@H](CO)NC(=O)[C@H](Cc1ccc(O)cc1)NC(=O)[C@H](CC(=O)O)NC(=O)[C@H](CO)NC(=O)[C@@H](NC(=O)[C@H](Cc1ccccc1)NC(=O)[C@@H](NC(=O)CNC(=O)[C@@H](N)CCC(=O)O)[C@@H](C)O)[C@@H](C)CC)C(=O)N[C@@H](C)C(=O)N[C@@H](CCCCN)C(=O)N[C@@H](CC(=O)O)C(=O)N[C@@H](CCCCN)C(=O)N[C@H](C(=O)N[C@@H](CCCCNC(=O)CCCCCCCCCCCCCCC(=O)O)C(=O)N[C@@H](CCC(N)=O)C(=O)N[C@@H](CCC(N)=O)C(=O)N[C@@H](CC(=O)O)C(=O)N[C@@H](Cc1ccccc1)C(=O)N[C@H](C(=O)N[C@@H](CCC(=O)O)C(=O)N[C@@H](Cc1c[nH]c2ccccc12)C(=O)N[C@@H](CC(C)C)C(=O)N[C@@H](CC(C)C)C(=O)N[C@@H](C)C(=O)N[C@@H](CCC(N)=O)C(=O)N[C@@H](CCCCN)C(=O)N1CCC[C@H]1C(=O)N[C@@H](CO)C(=O)N[C@@H](CO)C(=O)NCC(=O)N[C@@H](C)C(=O)N1CCC[C@H]1C(=O)N1CCC[C@H]1C(=O)N1CCC[C@H]1C(=O)N[C@@H](CO)C(=O)O)C(C)C)[C@@H](C)CC
B4: AT669 (peptide)
peptide: EGTFISDYSIA[Nle]DKIK(C16 diacid)QQDFVEWLLAQKPSSGAPPPS-OH
modifications: N-terminus assumed
SMILES: CCCC[C@H](NC(=O)[C@H](C)NC(=O)[C@@H](NC(=O)[C@H](CO)NC(=O)[C@H](Cc1ccc(O)cc1)NC(=O)[C@H](CC(=O)O)NC(=O)[C@H](CO)NC(=O)[C@@H](NC(=O)[C@H](Cc1ccccc1)NC(=O)[C@@H](NC(=O)CNC(=O)[C@@H](N)CCC(=O)O)[C@@H](C)O)[C@@H](C)CC)[C@@H](C)CC)C(=O)N[C@@H](CC(=O)O)C(=O)N[C@@H](CCCCN)C(=O)N[C@H](C(=O)N[C@@H](CCCCNC(=O)CCCCCCCCCCCCCCC(=O)O)C(=O)N[C@@H](CCC(N)=O)C(=O)N[C@@H](CCC(N)=O)C(=O)N[C@@H](CC(=O)O)C(=O)N[C@@H](Cc1ccccc1)C(=O)N[C@H](C(=O)N[C@@H](CCC(=O)O)C(=O)N[C@@H](Cc1c[nH]c2ccccc12)C(=O)N[C@@H](CC(C)C)C(=O)N[C@@H](CC(C)C)C(=O)N[C@@H](C)C(=O)N[C@@H](CCC(N)=O)C(=O)N[C@@H](CCCCN)C(=O)N1CCC[C@H]1C(=O)N[C@@H](CO)C(=O)N[C@@H](CO)C(=O)NCC(=O)N[C@@H](C)C(=O)N1CCC[C@H]1C(=O)N1CCC[C@H]1C(=O)N1CCC[C@H]1C(=O)N[C@@H](CO)C(=O)O)C(C)C)[C@@H](C)CC

Target: T1, human GIP receptor
Experiment: cell-based or functional assay

In order of falling “cAMP agonism % Emax” value:
1. EGTFISDYSI[Aib][Nle]DKIK(C16 diacid)QQDFVEWLLAQKPSSGAPPPS-OH [AT667]  4%
2. B1  0%
3. B2  0%
4. B3  0%
5. B4  0%

In order of rising “cAMP antagonism” value:
1. B1  0.136 nM
2. EGTFISDYSI[Aib][Nle]DKIK(C16 diacid)QQDFVEWLLAQKPSSGAPPPS-OH [AT667]  0.736 nM
3. B2  0.944 nM
4. B4  3.35 nM
5. B3  10 nM

In order of falling “cAMP antagonism % inhib” value:
1. B4  95%
2. B1  94%
3. B2  92%
4. B3  92%
5. EGTFISDYSI[Aib][Nle]DKIK(C16 diacid)QQDFVEWLLAQKPSSGAPPPS-OH [AT667]  86%

In order of rising “cAMP antagonism pIC50” value:
1. B3  8
2. B4  8.5
3. B2  9
4. EGTFISDYSI[Aib][Nle]DKIK(C16 diacid)QQDFVEWLLAQKPSSGAPPPS-OH [AT667]  9.1
5. B1  9.9
